{"source": "patent US6506592B1", "about": "“Hyperthermophilic alpha-glucosidase gene and its use” (Board of Regents of the University of Nebraska, priority 1998, dated 2003)", "molecules": {"B1": {"name": "recombinant alpha-glucosidase: thermostable alpha-glucosidase of Sulfolobus solfataricus encoded by malA (SEQ ID NO:2), expressed recombinantly in E. coli or transgenic tobacco (protein, listed as Sulfolobus solfataricus)", "chain": "MQTIKIYENKGVYKVVIGEPFPPIEFPLEQKISSNKSLSELGLTIVQQGNKVIVEKSLDLKEHIIGLGEKAFELDRKRKRYVMYNVDAGAYKKYQDPLYVSIPLFISVKDGVATGYFFNSASKVIFDVGLEEYDKVIVTIPEDSVEFYVIEGPRIEDVLEKYTELTGKPFLPPMWAFGYMISRYSYYPQDKVVELVDIMQKEGFRVAGVFLDIHYMDSYKLFTWHPYRFPEPKKLIDELHKRNVKLITIVDHGIRVDQNYSPFLSGMGKFCEIESGELFVGKMWPGTTVYPDFFREDTREWWAGLISEWLSQGVDGIWLDMNEPTDFSRAIEIRDVLSSLPVQFRDDRLVTTFPDNVVHYLRGKRVKHEKVRNAYPLYEAMATFKGFRTSHRNEIFILSRAGYAGIQRYAFIWTGDNTPSWDDLKLQLQLVLGLSISGVPFVGCDIGGFQGRNFAEIDNSMDLLVKYYALALFFPFYRSHKATDGIDTEPVFLPDYYKEKVKEIVELRYKFLPYIYSLALEASEKGHPVIRPLFYEFQDDDDMYRIEDEYMVGKYLLYAPIVSKEESRLVTLPRGKWYNYWNGEIINGKSVVKSTHELPIYLREGSIIPLEGDELIVYGETSFKRYDNAEITSSSNEIKFSREIYVSKLTITSEKPVSKIIVDDSKEIQVEKTMQNTYVAKINQKIRGKINLE"}, "B2": {"name": "Beta-glycosidase: S. solfataricus beta-glycosidase (lacS) converting beta-linked disaccharides into glucose, expressed in transgenic tobacco (protein)", "chain": "MYSFPNSFRFGWSQAGFQSEMGTPGSEDPNTDWYKWVHDPENMAAGLVSGDLPENGPGYWGNYKTFHDNAQKMGLKIARLNVEWSRIFPNPLPRPQNFDESKQDVTEVEINENELKRLDEYANKDALNHYREIFKDLKSRGLYFILNMYHWPLPLWLHDPIRVRRGDFTGPSGWLSTRTVYEFARFSAYIAWKFDDLVDEYSTMNEPNVVGGLGYVGVKSGFPPGYLSFELSRRAMYNIIQAHARAYDGIKSVSKKPVGIIYANSSFQPLTDKDMEAVEMAENDNRWWFFDAIIRGEITRGNEKIVRDDLKGRLDWIGVNYYTRTVVKRTEKGYVSLGGYGHGCERNSVSLAGLPTSDFGWEFFPEGLYDVLTKYWNRYHLYMYVTENGIADDADYQRPYYLVSHVYQVHRAINSGADVRGYLHWSLADNYEWASGFSMRFGLLKVDYNTKRLYWRPSALVYREIATNGAITDEIEHLNSVPPVKPLRH"}}, "key": {"[1]": {"test": "glucose release by transgenic plant protein extracts at 80° C.", "assay_type": "biochemical", "details": "transgenic plant protein extract, incubation at 80° C.", "protocol": "(§1) FIGS. 7A and B show the release of glucose by transgenic glycosyl hydrolases from exogenous and endogenous plant carbohydrates. FIG. 7A. Glucose released by the alpha-glucosidase using an exogenous soluble starch as substrate. A 5% (w/v) solution of soluble starch was incubated at 80° C. with no additions (closed circles), with a protein extract from a plant transformed with an empty vector (open circles) and with a protein extract from transformant MI52E containing the alpha-glucosidase (closed squares). FIG. 7B. Glucose released by glycosyl hydrolases using an endogenous polysaccharide-enriched plant extract as substrate. Protein extracts were: beta-glycosidase (closed squares), alpha-glucosidase (closed circles), and empty vector transformed plant (labeled). Glucose levels were determined using the glucose oxidase assay.\nConversion of plant polysaccharide into free sugar is conventionally done by addition of purified or semipurified hydrolytic enzymes. […] Protein extracts of the alpha-glucosidase transgenic plant MI52E, were prepared and combined with soluble starch. Plant leaves were harvested in the late afternoon, ground in liquid nitrogen with a mortar and pestle in 100 mM phosphate buffer at pH 7.0. […] No significant glucose was detected in reactions containing protein extracts from plants transformed with empty vector and added starch or in reactions containing starch alone. […]"}, "[2]": {"test": "hydrolysis of p-nitrophenyl-α-D-glucopyranoside by purified recombinant enzyme", "assay_type": "biochemical", "details": "85° C., purified recombinant enzyme from E. coli", "protocol": "The production of the recombinant enzymes of this invention were conducted by over expression in E. coli. Assays for alpha-glucosidase activity were performed with para-nitrophenyl-alpha-D-glucopyranoside or methylumbelliferyl-alpha-D-glucoside. Assays for hydrolysis of substrate and detection of glucose were monitored by means known in the art. Purification of the recombinant enzyme to apparent homogeneity employed heat fractionation of clarified cell sonicates followed by anion-exchange fast protein liquid chromatography and gel filtration fast protein liquid chromatography as described in Rolfsmeier, et al.,1995.\nPurification of the recombinant enzyme to apparent homogeneity employed heat fractionation of clarified cell sonicates followed by anion-exchange fast protein liquid chromatography and gel filtration fast protein liquid chromatography as described by Rolfsmeier, et al., 1995. […] Complete denaturation of the recombinant alpha-glucosidase required additional treatment with 6 M guanidine hydrochloride, resulting in exclusive formation of the 80-kDa monomer. Assays for alpha-glucosidase activity with p-nitrophenyl-α-D-glucopyranoside were performed as described by Rolfsmeier, et al., 1995. In enzymatic assays for hydrolysis of maltose and glycogen, release of glucose was monitored with a glucose oxidase assay kit (Sigma) as described by Rolfsmeier, et al., 1995. […]"}, "[3]": {"test": "alpha-glucosidase activity in tobacco leaf extract (alpha-PNPG hydrolysis)", "assay_type": "biochemical", "protocol": "(§2) To obtain tobacco leaf extract for assays, approximately […] of tobacco (five 1.1 cm diameter disk punches) leaves were harvested, rinsed with distilled water, midribs removed and weighed. Leaves were then ground to a powder in liquid nitrogen and ground again with a sterilized pestle. The extracts were then clarified by centrifugation at 14,000 rpm for 10 minutes at room temperature. The resulting supernatant was heat treated for 1 hour at 85° C. and clarified by spinning at 14,000 rpm for 10 minutes at room temperature. The supernatant was collected and assayed for alpha-glucosidase or beta-glycosidase enzyme activity by measuring the hydrolysis of p-nitrophenyl-alpha-glucopyranoside (alpha-PNPG) and p-nitrophenyl-beta-D-glucopyranoside (beta-PNPG), respectively, as previously described (Rolfsmeier, et al., 1998; Haseltine, et al., 1999(a)). Plant tissue extracts for studies on hydrolysis of added defined substrates were prepared using 100 g of tobacco leaves were harvested and grinded to a fine powder in liquid nitrogen. The leaf powder was resuspended in 500 ml of 10 mM tris-Cl pH7.0 to which 10 mM beta-mercaptoethanol has been added. The suspension was then homogenized in a Waring blender. The resulting extract was centrifuged at 5,000 rpm for 30 minutes at 4° C. and the supernatant was further clarified by filtering through three layers of cheesecloth. Plant extracts used for studies on hydrolysis of endogenous polysaccharides as sources of transgenic proteins were prepared using one leaf (medium to large) for each plant which was harvested and ground to a fine powder in liquid nitrogen. The ground leaves were resuspended in 2 volumes of 100 mM sodium phosphate pH 7.0 with 10 mM beta-mercaptoethanol and the tissue was further homogenized in a Waring blender. The resulting extracts were then incubated at 80° C. to activate the recombinant alpha-glucosidase and beta-glycosidase for 48 hours. After incubation, the extracts were clarified by centrifugation by 12,500 rpm for 10 minutes 4° C. Glucose released by glycosyl hydrolase action on endogenous plant carbohydrates was measured using the Glucose Oxidase Assay (Sigma).\nGlucosyl hydrolase levels were determined in primary plant transformants using clarified leaf extracts incubated at 80° C. Plants transformed with empty vector lacked detectable thermostable glycosyl hydrolase activity. Activity was measured on fully expanded leaves of plants that had grown in soil for 76 to 164 days. Levels of the beta-glycosidase in young primary transformants was determined in twenty-three independent events. Enzyme levels in ten representative isolates ranged over 12-fold with maximum values of 29 μmoles PNP/min/mg of protein (FIG. 5B).\nIt has been determined that glycosyl hydrolases retain significant activity in fully mature and preserved leaf tissue. Glycosyl hydrolase specific activities in plant tissues were compared, after freezing or drying, to levels in fresh tissue samples (Table 2). Significant beta-glycosidase activity was retained in leaves harvested and held at −80° C. for 5 days."}, "[4]": {"test": "maltose hydrolysis, glucose oxidase assay", "assay_type": "biochemical", "details": "FIG. 4A", "description": "(§3) Purification of the recombinant enzyme to apparent homogeneity employed heat fractionation of clarified cell sonicates followed by anion-exchange fast protein liquid chromatography and gel filtration fast protein liquid chromatography as described by Rolfsmeier, et al., 1995. […] Complete denaturation of the recombinant alpha-glucosidase required additional treatment with 6 M guanidine hydrochloride, resulting in exclusive formation of the 80-kDa monomer. Assays for alpha-glucosidase activity with p-nitrophenyl-α-D-glucopyranoside were performed as described by Rolfsmeier, et al., 1995. In enzymatic assays for hydrolysis of maltose and glycogen, release of glucose was monitored with a glucose oxidase assay kit (Sigma) as described by Rolfsmeier, et al., 1995.\n(Rolfsmeier et al., 1995)."}, "[5]": {"test": "conversion of added starch to glucose by concentrated malA tobacco extract at 85° C.", "assay_type": "biochemical", "details": "5% starch, extract pre-treated one hour at 85° C., 16 hours", "protocol": "Precipitation of tobacco leaf proteins with (NH4)2 SO4 achieved a 3-fold concentration of the recombinant alpha-glucosidase with a recovery of 100%. Endogenous plant glycolytic activities were eliminated prior to malA assays by heat inactivation (1 hr, […]). Background due to endogenous glucose was removed by dialysis. […] In an attempt to remove this background, concentrated empty vector control extract was pre-incubated for one hour at 85° C., clarified by microcentrifugation and then incubated for 0 or 14 hour at 85° C. in the presence or absence of 5% starch. Without preincubation, background in the presence of starch was very high, at both 0 and at 14 hours, corresponding to 17.8 to 19.2 micrograms of glucose per 100 microliters of assay. Background in the absence of starch was much lower, but apparently more time-dependent, rising from 0.9 to 1.6 micrograms of glucose per 100 microliters in 14 hours (FIG. 7). When the extract was pre-heated before assay, the background in the absence of starch was unchanged, but the background in the presence of starch was then at the same level as the background in the absence of starch without pre-heating (FIG. 7). […]\nFor measurements of glycosyl hydrolase activities on glucose polymers. […] Aliquots of 100 ul were removed at four hour intervals and glucose was detected with a glucose oxidase glucose detection kit from Sigma."}, "[6]": {"test": "recalcitrance to denaturation in denaturing SDS-PAGE", "assay_type": "physicochemical", "details": "boiling in 2% (wt/vol) SDS for 10 minutes", "description": "as §3"}, "[7]": {"test": "glucose release from endogenous polysaccharide-enriched tobacco extract at 80° C.", "assay_type": "biochemical, Nicotiana tabacum", "details": "transgenic protein extract plus polysaccharide-enriched tobacco extract, terminated after 160 hr", "protocol": "as §1\nTo obtain tobacco leaf extract for assays, approximately […] of tobacco (five 1.1 cm diameter disk punches) leaves were harvested, rinsed with distilled water, midribs removed and weighed. Leaves were then ground to a powder in liquid nitrogen and ground again with a sterilized pestle. […] Glucose released by glycosyl hydrolase action on endogenous plant carbohydrates was measured using the Glucose Oxidase Assay (Sigma).\nLevels of liberated glucose were determined as a function of incubation time at 80° C. […]"}, "[8]": {"test": "glycogen hydrolysis, glucose oxidase assay", "assay_type": "biochemical", "description": "as §3\nAlpha-glucosidases of mammalian origin are generally distinguished from those of higher plants and eubacteria by their affinities for glycogen as a substrate."}, "[9]": {"test": "beta-glycosidase activity in tobacco leaf extract (beta-PNPG hydrolysis)", "assay_type": "biochemical", "protocol": "as §2, with “Plant extracts used for studies on hydrolysis of endogenous polysaccharides as sources of transgenic proteins were prepared using one leaf (medium to large) for each plant which was harvested and ground to a fine powder in liquid nitrogen. The ground leaves were resuspended in 2 volumes of 100 mM sodium phosphate pH 7.0 with 10 mM beta-mercaptoethanol and the tissue was further homogenized in a Waring blender. The resulting extracts were then incubated at 80° C. to activate the recombinant alpha-glucosidase and beta-glycosidase for 48 hours. After incubation, the extracts were clarified by centrifugation by 12,500 rpm for 10 minutes 4° C.” left out\nGlucosyl hydrolase levels were determined in primary plant transformants using clarified leaf extracts incubated at 80° C. […] Activity was measured on fully expanded leaves of plants that had grown in soil for 76 to 164 days. Levels of the beta-glycosidase in young primary transformants was determined in twenty-three independent events. […]\nIt has been determined that glycosyl hydrolases retain significant activity in fully mature and preserved leaf tissue. […]"}, "[10]": {"details": "Dried transgenic tobacco leaf tissue"}, "[11]": {"details": "Fresh transgenic tobacco leaf tissue"}}, "data": [{"molecule": "B1", "values": [{"measurement": "rate of appearance of glucose", "setting": "[1]", "value": 0.11, "unit": "µg/h"}, {"measurement": "Vmax for p-nitro-phenyl-α-D-glucopyranoside", "setting": "[2]", "value": "3.08 μmol of p-nitrophenol/min"}, {"measurement": "Km", "setting": "[2]; read-out: Km for p-nitro-phenyl-α-D-glucopyranoside", "value": 2160, "unit": "µM"}, {"measurement": "Alpha-glucosidase specific activity in plant tissue", "setting": "[3]; [10]", "value": 27, "unit": "μmoles PNP/hr/mg"}, {"measurement": "Alpha-glucosidase specific activity in plant tissue", "setting": "[3]; [11]", "value": 1.6, "unit": "μmoles PNP/hr/mg"}, {"measurement": "Alpha-glucosidase specific activity in plant tissue", "setting": "[3]; Frozen transgenic tobacco leaf tissue", "value": 3.6, "unit": "μmoles PNP/hr/mg"}, {"measurement": "activity more stable when dried, as compared to fresh tissues", "setting": "[3]; dried vs fresh tobacco tissue", "value": 17, "unit": "times"}, {"measurement": "activity more stable when frozen, as compared to fresh tissues", "setting": "[3]; frozen vs fresh tobacco tissue", "value": "over two"}, {"measurement": "pH optimum for maltose hydrolysis", "setting": "[4]", "value": 4.5}, {"measurement": "net rate of glucose formation (conversion of added starch to glucose)", "setting": "[5]", "value": 0.42, "unit": "micrograms per hour"}, {"measurement": "enzyme that failed to enter the separating gel, migrating in the stacking gel", "setting": "[6]", "value": "45 % of the total observed protein"}, {"measurement": "initial lag before levels of glucose began to increase", "setting": "[7]", "value": 28, "unit": "h"}, {"measurement": "Km for glycogen", "setting": "[8]; 85° C.", "value": 64.9, "unit": "mg/mL"}, {"measurement": "Vmax for glycogen", "setting": "[8]; 85° C.", "value": "1.0 μmol of glucose/min"}, {"measurement": "pH optimum for glycogen hydrolysis", "setting": "[8]; FIG. 4B", "value": 5.5}]}, {"molecule": "B2", "values": [{"measurement": "rate of appearance of glucose", "setting": "[1]", "value": 0.15, "unit": "µg/h"}, {"measurement": "Beta-glycosidase specific activity in plant tissue", "setting": "[9]; [10]", "value": 31, "unit": "μmoles PNP/min/mg"}, {"measurement": "Beta-glycosidase specific activity in plant tissue", "setting": "[9]; [11]", "value": 62, "unit": "μmoles PNP/min/mg"}, {"measurement": "Beta-glycosidase specific activity in plant tissue", "setting": "[9]; Frozen transgenic tobacco leaf tissue (−80° C. for 5 days)", "value": 67, "unit": "μmoles PNP/min/mg"}, {"measurement": "initial lag before levels of glucose began to increase", "setting": "[7]", "value": 28, "unit": "h"}]}]}
